According to patent publication US20140072544A1, “POLYBACTERIAL PREPARATION WITH HEALTH BENEFITS: ANTIOXIDANT EFFECT, REDUCTION OF CHOLESTEROL CONCENTRATION, ANTI-INFLAMMATORY IMMUNOMODULATING EFFECT AND RELEASE OF BIOACTIVE PEPTIDES INHIBITING ANGIOTENSIN-CONVERTING ENZYME” (LB BULGARICUM PLC, priority 2011, published 2014):

Molecular target: angiotensin-converting enzyme (ACE) (Homo sapiens, UniProt P12821)
Assay: ACE-inhibiting activity of peptide extracts
Format: biochemical
Settings: purified single peptide released by L. helveticus A1 (HPLC fractionation, ion exchange)
Description: Purified strains with inoculum of 0.1% are incubated for 18 hours in 9% skimmed milk at 37° C. After adjusting the pH to 4.3 with 50% lactic acid the samples are centrifuged (5000 g, 10 min). Supernatant is dosed at reverse-phase cartridge and washed with water. The process is followed by elution with 60% acetonitrile in 0.1% trifluoroacetic acid and then evaporation and reconstitution of the resulting extract. The extract or its dilutions are analyzed for inhibition of ACE.
A total peptide extract is prepared. Enzymatic reaction is carried out by a conventional test, but using different dilutions of peptide extracts as their volume is 20 μl. The enzyme solution was 40 μl with an activity of 0.1 U/ml. The substrate hipuril-histidil-leucine is dissolved in borate buffer at pH 8.3 and has a volume of 190 μl. The final concentration of the substrate is 6 mM, and those of sodium chloride is 300 mM. The reaction is conducted at 37° C. for 30 minutes. The seizing is performed with 100 microliters of 4 n HCl, and the extraction of the freed hippuric acid is done with 1 ml of ethyl acetate. After evaporation of the solvent, the residue is dissolved in 1 ml of water and tested spectrophotometrically at 228 nm. […]
where A is the absorbance under the upper reaction, C is the absorbance without enzyme, B is the absorbance without the involvement of peptide extracts. […]

angiotensin-converting enzyme (ACE), sequence (P12821 30-1306, species assumed): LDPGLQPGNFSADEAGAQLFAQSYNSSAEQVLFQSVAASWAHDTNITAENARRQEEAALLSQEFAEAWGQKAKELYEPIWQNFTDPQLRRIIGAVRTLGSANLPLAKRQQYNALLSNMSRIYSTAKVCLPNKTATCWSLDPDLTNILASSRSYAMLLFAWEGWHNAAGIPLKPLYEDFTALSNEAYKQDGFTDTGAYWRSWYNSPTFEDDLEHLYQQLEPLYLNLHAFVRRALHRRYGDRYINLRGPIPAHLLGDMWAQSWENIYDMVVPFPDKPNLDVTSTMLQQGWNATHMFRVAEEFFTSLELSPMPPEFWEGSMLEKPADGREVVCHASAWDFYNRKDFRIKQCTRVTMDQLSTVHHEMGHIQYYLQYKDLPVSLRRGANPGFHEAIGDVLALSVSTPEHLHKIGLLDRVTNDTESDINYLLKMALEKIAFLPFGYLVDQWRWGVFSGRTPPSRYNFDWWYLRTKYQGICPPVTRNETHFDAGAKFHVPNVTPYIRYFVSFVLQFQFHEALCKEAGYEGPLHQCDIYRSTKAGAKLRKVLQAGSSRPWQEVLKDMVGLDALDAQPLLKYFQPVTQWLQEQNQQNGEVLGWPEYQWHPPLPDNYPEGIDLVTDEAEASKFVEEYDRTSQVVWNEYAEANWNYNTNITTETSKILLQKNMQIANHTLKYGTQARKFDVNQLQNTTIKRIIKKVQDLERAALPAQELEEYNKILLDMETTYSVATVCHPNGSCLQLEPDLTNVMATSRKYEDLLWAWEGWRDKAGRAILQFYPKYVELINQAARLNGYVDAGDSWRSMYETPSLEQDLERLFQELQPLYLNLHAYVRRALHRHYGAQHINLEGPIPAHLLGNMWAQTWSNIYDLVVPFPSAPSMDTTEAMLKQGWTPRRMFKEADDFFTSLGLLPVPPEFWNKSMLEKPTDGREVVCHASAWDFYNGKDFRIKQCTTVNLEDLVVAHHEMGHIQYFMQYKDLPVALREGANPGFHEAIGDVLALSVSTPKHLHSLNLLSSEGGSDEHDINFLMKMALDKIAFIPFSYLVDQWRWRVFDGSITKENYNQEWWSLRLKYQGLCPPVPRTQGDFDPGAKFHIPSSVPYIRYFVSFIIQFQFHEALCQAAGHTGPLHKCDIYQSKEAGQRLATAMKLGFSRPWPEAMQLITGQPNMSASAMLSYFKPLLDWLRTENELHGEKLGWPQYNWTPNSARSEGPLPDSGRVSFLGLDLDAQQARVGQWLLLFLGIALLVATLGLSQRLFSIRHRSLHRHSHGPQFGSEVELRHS

Anti-ACE activity %: 78.0%
Substance: Ala-Leu-Pro-Met (ALPM; printed: Ala-Leu-Pro-Met) [anti-ACE peptide released by the strain L. helveticus A1, purified from fermented milk]
